Kd data for one molecule are collected here from patent US20040192898A1 (published 2004).

As a reminder, the Kd is the concentration at which binding is half-saturated.

This experiment has as its target T1, Amyloid-beta 1-42 (UniProt P05067 672-713).
T1 construct: domain: Amyloid-beta 1-42; Bought peptide; 1-42 counts on the Aβ peptide, not on APP; also called Aβ1-42
Description: SPR, BIAcore 2000; antibody captured, Aβ flowed over. The protocol: Antibody affinity (KD=Kd/Ka) was determined using a BlAcore biosensor 2000 and data analyzed with BlAevaluation (v. 3.1) software. A capture antibody (rabbit anti-mouse) was coupled via free amine groups to carboxyl groups on flow cell 2 of a biosensor chip (CM5) using N-ethyl-N-dimethylaminopropyl carbodiimide and N-hydroxysuccinimide (EDC/NHS). A non-specific rabbit IgG was coupled to flow cell 1 as a background control. Monoclonal antibodies were captured to yield 300 resonance units (RU). […] To regenerate the chip, bound anti-Aβ antibody was eluted from the chip using a wash with glycine-HCI (pH 2). A control injection containing no amyloid-beta served as a control for baseline subtraction.

T1 sequence (P05067 672-713 limits assumed): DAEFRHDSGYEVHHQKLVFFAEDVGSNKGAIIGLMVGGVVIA

B1: Humanized 266 antibody (antibody, human IgG1, kappa, V domains shown)
VH: EVQLVESGGGLVQPGGSLRLSCAASGFTFSRYSMSWVRQAPGKGLELVAQINSVGNSTYYPDTVKGRFTISRDNAKNTLYLQMNSLRAEDTAVYYCASGDYWGQGTLVTVSS
VL: DVVMTQSPLSLPVTLGQPASISCRSSQSLIYSDGNAYLHWFLQKPGQSPRLLIYKVSNRFSGVPDRFSGSGSGTDFTLKISRVEAEDVGVYYCSQSTHVPWTFGQGTKVEIKR
modifications: N-glycosylated at Asn 56 (fully) and Asn 292
notes: Human IgG1 (pVg1) / kappa, expressed in Sp2/0; also called Hu266
As to B1, the dissociation constant (Kd) is 4 pM.
